What all share (assay): ITC
For orientation: ITC needs no label: the signal is the heat of the interaction.

For one experiment, the target named is T1, NELF-E 244-380 (Homo sapiens, UniProt P18615).
T1 chain: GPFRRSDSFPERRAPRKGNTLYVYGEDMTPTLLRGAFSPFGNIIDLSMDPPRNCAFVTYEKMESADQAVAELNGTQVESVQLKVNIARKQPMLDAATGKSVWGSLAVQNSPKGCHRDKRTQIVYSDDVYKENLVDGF

In a further experiment the target is T2, ARS2 763-871 (Homo sapiens, UniProt Q9BXP5).
T2 chain: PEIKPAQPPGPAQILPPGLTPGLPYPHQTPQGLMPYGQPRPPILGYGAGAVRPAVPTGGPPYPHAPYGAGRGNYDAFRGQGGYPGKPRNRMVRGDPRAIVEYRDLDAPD

For the next experiment, the target named is T3, NELF-E 360-380 (Homo sapiens, UniProt P18615, m7GTP).
T3 chain: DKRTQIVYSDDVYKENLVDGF

A further experiment concerns the target T4, ARS2 845-871 (Homo sapiens, UniProt Q9BXP5, m7GTP).
T4 chain: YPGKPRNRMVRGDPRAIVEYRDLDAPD

The target of the next experiment is T5, PHAX 103-308 (Homo sapiens, UniProt Q9H814).
T5 chain: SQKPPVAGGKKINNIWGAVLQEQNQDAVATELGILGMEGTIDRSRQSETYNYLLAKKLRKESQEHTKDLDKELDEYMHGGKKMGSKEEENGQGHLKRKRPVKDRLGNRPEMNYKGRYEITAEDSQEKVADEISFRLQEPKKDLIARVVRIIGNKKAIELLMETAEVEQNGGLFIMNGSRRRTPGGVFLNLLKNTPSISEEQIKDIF

The target in a further experiment is T6, ARS2 827-871 (Homo sapiens, UniProt Q9BXP5, m7GTP).
T6 chain: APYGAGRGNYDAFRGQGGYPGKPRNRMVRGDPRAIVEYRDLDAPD

The target in another experiment is PHAX (Homo sapiens, UniProt Q9H814).
Sequence of PHAX (Q9H814 2-394): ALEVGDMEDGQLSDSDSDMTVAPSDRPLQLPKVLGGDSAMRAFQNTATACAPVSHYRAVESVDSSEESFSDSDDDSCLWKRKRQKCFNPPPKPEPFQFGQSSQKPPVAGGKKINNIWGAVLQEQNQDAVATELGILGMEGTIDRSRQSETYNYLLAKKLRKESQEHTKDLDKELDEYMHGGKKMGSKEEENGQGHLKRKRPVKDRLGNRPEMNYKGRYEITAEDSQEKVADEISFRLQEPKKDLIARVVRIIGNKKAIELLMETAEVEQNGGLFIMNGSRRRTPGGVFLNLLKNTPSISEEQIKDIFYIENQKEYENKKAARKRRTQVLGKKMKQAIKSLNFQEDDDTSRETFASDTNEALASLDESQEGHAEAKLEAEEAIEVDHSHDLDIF

B1: CBC (protein)
chain 1: MSRRRHSDENDGGQPHKRRKTSDANETEDHLESLICKVGEKSACSLESNLEGLAGVLEADLPNYKSKILRLLCTVARLLPEKLTIYTTLVGLLNARNYNFGGEFVEAMIRQLKESLKANNYNEAVYLVRFLSDLVNCHVIAAPSMVAMFENFVSVTQEEDVPQVRRDWYVYAFLSSLPWVGKELYEKKDAEMDRIFANTESYLKRRQKTHVPMLQVWTADKPHPQEEYLDCLWAQIQKLKKDRWQERHILRPYLAFDSILCEALQHNLPPFTPPPHTEDSVYPMPRVIFRMFDYTDDPEGPVMPGSHSVERFVIEENLHCIIKSHWKERKTCAAQLVSYPGKNKIPLNYHIVEVIFAELFQLPAPPHIDVMYTTLLIELCKLQPGSLPQVLAQATEMLYMRLDTMNTTCVDRFINWFSHHLSNFQFRWSWEDWSDCLSQDPESPKPKFVREVLEKCMRLSYHQRILDIVPPTFSALCPANPTCIYKYGDESSNSLPGHSVALCLAVAFKSKATNDEIFSILKDVPNPNQDDDDDEGFSFNPLKIEVFVQTLLHLAAKSFSHSFSALAKFHEVFKTLAESDEGKLHVLRVMFEVWRNHPQMIAVLVDKMIRTQIVDCAAVANWIFSSELSRDFTRLFVWEILHSTIRKMNKHVLKIQKELEEAKEKLARQHKRRSDDDDRSSDRKDGVLEEQIERLQEKVESAQSEQKNLFLVIFQRFIMILTEHLVRCETDGTSVLTPWYKNCIERLQQIFLQHHQIIQQYMVTLENLLFTAELDPHILAVFQQFCALQA
chain 2: SGGLLKALRSDSYVELSQYRDQHFRGDNEEQEKLLKKSCTLYVGNLSFYTTEEQIYELFSKSGDIKKIIMGLDKMKKTACGFCFVEYYSRADAENAMRYINGTRLDDRIIRTDWDAGFKEGRQYGRGRSGGQVRDEYRQDYDAGRGGYGKLAQNQ
modifications: m7GTP
One may read the Kd as the concentration at which binding is half-saturated. A lower Kd goes with tighter binding. Turning to B1, the Kd with NELF-E 244-380 is roughly 50 nM; with ARS2 763-871 it was 1000 nM.

B2: CBC (protein)
chain 1: B1 chain 1
chain 2: B1 chain 2
Turning to B2, the Kd with NELF-E 360-380 was roughly 3300 nM; with NELF-E 244-380, roughly 400 nM; with ARS2 845-871, 1100 nM; with PHAX 103-308 it was 600 nM; with ARS2 827-871 it was 1000 nM; with PHAX, 300 nM.

Source of the values: paper PMC5670239 (2017).
